Experimental findings from the supplement of paper PMC6755084 are described below.

The chains are these.
B1: F1*; the commonest letter at each place (parent)
chain: GAGACCGCAACTGAAAAGTTGTTATCACTTGTCGTAAGACACTTTGGATGGGTTGAAGTTCTGCACGTAGAAGCAAAAGGC

The variants in the series derive from B1. Kind of series: fraction ligated after 30 min (ligated reads / total reads); higher = more ligase activity. As to conditions: with F1*sub RNA substrate (template-directed ligation), 42 °C. In a few lines: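 Oligo-pool templates of ligase ribozyme variants were PCR-amplified, T7-transcribed and gel-purified. Ligated and unligated bands were gel-separated, reverse transcribed with barcoded primers, and MiSeq-sequenced; core bases were filtered at quality ≥20. Fraction ligated per variant was ligated reads over total reads.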
Regarding GAGACCGCAACTGAAAAGTTGTTATCACGTGTCGTATGACACTTTGGATGGGTTGAAGTTCTGCACGTAGAAGCAAAAGGC, the fraction ligated turned out to be 0.828.

As to GAGACCGCAACTGAAAAGTTGTTACCACTTGTCGGAAGACACTTTGGATGGGTTGAAGTTCTGCACGTAGAAGCAAAAGGC, the fraction ligated was found to be 0.801.

Consider GAGACCGCAACTGAAAAGTTGTTATCACTTGTCGTAACACATTTTGGATGGGTTGAAGTTCTGCACGTAGAAGCAAAAGGC, for which the fraction ligated worked out at 0.841.

For GAGACCGCAACTGAAAAGTTGTTATCACTTGTCGTAACACAATTTGGATGGGTTGAAGTTCTGCACGTAGAAGCAAAAGGC, the fraction ligated was determined as 0.857.

As for GAGACCGCAACTGAAAAGTTGTTAGCACTTGTCGTAAGAGACTTTGGATGGGTTGAAGTTCTGCACGTAGAAGCAAAAGGC, the fraction ligated worked out at 0.58.

Take GAGACCGCAACTGAAAAGTTGTTAGCACTTGTCGTTAGACACTTTGGATGGGTTGAAGTTCTGCACGTAGAAGCAAAAGGC: the fraction ligated turned out to be 0.795.

Regarding GAGACCGCAACTGAAAAGTTGTTCTCACTTGTCGTGAGACACTTTGGATGGGTTGAAGTTCTGCACGTAGAAGCAAAAGGC, the fraction ligated was determined as 0.0223.

For the variant GAGACCGCAACTGAAAAGTTGTTATCACTTGTCGTGAGACACTCTGGATGGGTTGAAGTTCTGCACGTAGAAGCAAAAGGC, the fraction ligated worked out at 0.85.

Consider GAGACCGCAACTGAAAAGTTGTTATCACTCATCGTAAGACACTTTGGATGGGTTGAAGTTCTGCACGTAGAAGCAAAAGGC, for which the fraction ligated is 0.779.

Consider GAGACCGCAACTGAAAAGTTGTTATCACTGGTCGTAAGACACTTTGGGTGGGTTGAAGTTCTGCACGTAGAAGCAAAAGGC, for which the fraction ligated worked out at 0.791.

With GAGACCGCAACTGAAAAGTTGTTAGCACTCGTCGTAAGACACTTTGGATGGGTTGAAGTTCTGCACGTAGAAGCAAAAGGC, the fraction ligated was determined as 0.372.

As to GAGACCGCAACTGAAAAGTTGTTATCACTTGTCGTAAGACACTGAGGATGGGTTGAAGTTCTGCACGTAGAAGCAAAAGGC, the fraction ligated was 0.769.

As to GAGACCGCAACTGAAAAGTTGTTATCACTTGTCGTAAGACACTTTGAATTGGTTGAAGTTCTGCACGTAGAAGCAAAAGGC, the fraction ligated amounted to 0.657.

With GAGACCGCAACTGAAAAGTTGTTATCACTGGTCGTAAGCCACTTTGGATGGGTTGAAGTTCTGCACGTAGAAGCAAAAGGC, the fraction ligated is 0.786.

Consider GAGACCGCAACTGAAAAGTTGTTATCACTTGCCGTATGACACTTTGGATGGGTTGAAGTTCTGCACGTAGAAGCAAAAGGC, for which the fraction ligated is 0.78.

On to GAGACCGCAACTGAAAAGTTGTTATCGCTTGTCGTAAGTCACTTTGGATGGGTTGAAGTTCTGCACGTAGAAGCAAAAGGC, for which the fraction ligated came to 0.814.

On to GAGACCGCAACTGAAAAGTTGTTATCACTTGTTGTAAGACACTTTCGATGGGTTGAAGTTCTGCACGTAGAAGCAAAAGGC, for which the fraction ligated came to 0.807.

As to GAGACCGCAACTGAAAAGTTGTTATCAATTGTTGTAAGACACTTTGGATGGGTTGAAGTTCTGCACGTAGAAGCAAAAGGC, the fraction ligated stood at 0.829.

Consider GAGACCGCAACTGAAAAGTTGTTATCACTTGTCATAAGACACCTTGGATGGGTTGAAGTTCTGCACGTAGAAGCAAAAGGC, for which the fraction ligated worked out at 0.779.

Consider GAGACCGCAACTGAAAAGTTGTTATCACTTGTCGTAAGACACTTTGGATTGGTTTAAGTTCTGCACGTAGAAGCAAAAGGC, for which the fraction ligated worked out at 0.123.

With GAGACCGCAACTGAAAAGTTGTTATCACTTGTCGTAAGACACGTTGAATGGGTTGAAGTTCTGCACGTAGAAGCAAAAGGC, the fraction ligated was found to be 0.802.

GAGACCGCAACTGAAAAGTTGTTATCAGTTGTCGTAAGACACTTTGGATGGGTTGATGTTCTGCACGTAGAAGCAAAAGGC: the fraction ligated is 0.79.

In the case of GAGACCGCAACTGAAAAGTTGTTATCACTTGTCGTAGGCCACTTTGGATGGGTTGAAGTTCTGCACGTAGAAGCAAAAGGC, the fraction ligated was determined as 0.776.

With GAGACCGCAACTGAAAAGTTGTTATCACTTGTCGAAAGACAGTTTGGATGGGTTGAAGTTCTGCACGTAGAAGCAAAAGGC, the fraction ligated was 0.847.

Take GAGACCGCAACTGAAAAGTTGTTATCACTTGTCGTAAGACCCCTTGGATGGGTTGAAGTTCTGCACGTAGAAGCAAAAGGC: the fraction ligated is 0.766.

As for GAGACCGCAACTGAAAAGTTGTTATCACTTGTCGTAGGACACTTTGGATGGGTTAAAGTTCTGCACGTAGAAGCAAAAGGC, the fraction ligated was 0.846.

Take GAGACCGCAACTGAAAAGTTGTTATCACTTGTCGTAAGACACTTTTGAGGGGTTGAAGTTCTGCACGTAGAAGCAAAAGGC: the fraction ligated turned out to be 0.277.

With GAGACCGCAACTGAAAAGTTGTTATCACTTGTCGTAAGCCACTTTGGCTGGGTTGAAGTTCTGCACGTAGAAGCAAAAGGC, the fraction ligated worked out at 0.0845.

GAGACCGCAACTGAAAAGTTGTTATCACTTGGCGTAAGACACTTCGGATGGGTTGAAGTTCTGCACGTAGAAGCAAAAGGC: the fraction ligated stood at 0.346.

For the variant GAGACCGCAACTGAAAAGTTGTTATCACTTGTCGTAAGACACTTTGTATGGGTTGCAGTTCTGCACGTAGAAGCAAAAGGC, the fraction ligated was determined as 0.0301.

Consider GAGACCGCAACTGAAAAGTTGTTATCACTTGTCGTAAGACACCTTGGATGGGTTAAAGTTCTGCACGTAGAAGCAAAAGGC, for which the fraction ligated is 0.803.

In the case of GAGACCGCAACTGAAAAGTTGTTATCACTTGTCGTATGACAGTTTGGATGGGTTGAAGTTCTGCACGTAGAAGCAAAAGGC, the fraction ligated came out at 0.849.

For the variant GAGACCGCAACTGAAAAGTTGTTATCACTTGTCGTAATACACTTTCGATGGGTTGAAGTTCTGCACGTAGAAGCAAAAGGC, the fraction ligated turned out to be 0.787.

Turning to GAGACCGCAACTGAAAAGTTGTTACCACTTGTCGTAAGATACTTTGGATGGGTTGAAGTTCTGCACGTAGAAGCAAAAGGC, the fraction ligated worked out at 0.819.
